Data as given in paper PMC10924945.
Where a chain is given by its changes, count along the chain named.

Key:
Test in all cases: EMSA
[1] = molecular target: T1, BfmR R185A R185A (Pseudomonas aeruginosa PAO1) (UniProt Q9HWS7)
T1 sequence: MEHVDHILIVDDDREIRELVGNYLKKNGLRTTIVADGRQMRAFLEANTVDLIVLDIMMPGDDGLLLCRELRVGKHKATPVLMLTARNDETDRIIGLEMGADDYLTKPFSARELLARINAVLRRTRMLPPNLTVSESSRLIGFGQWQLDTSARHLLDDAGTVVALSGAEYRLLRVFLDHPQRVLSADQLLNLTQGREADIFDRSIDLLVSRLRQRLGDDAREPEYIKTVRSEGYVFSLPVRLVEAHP

[2] = molecular target: T2, BfmR T227A T227A (Pseudomonas aeruginosa PAO1) (UniProt Q9HWS7)
T2 sequence: T1 sequence with A185R, T227A

[3] = molecular target: T3, BfmR R202A R202A (Pseudomonas aeruginosa PAO1) (UniProt Q9HWS7)
T3 sequence: T1 sequence with A185R, R202A

[4] = molecular target: T4, BfmR (Pseudomonas aeruginosa PAO1) (UniProt Q9HWS7)
T4 sequence: T1 sequence with A185R

[5] = molecular target: T5, BfmR R210A R210A (Pseudomonas aeruginosa PAO1) (UniProt Q9HWS7)
T5 sequence: T1 sequence with A185R, R210A

[6] = molecular target: T6, BfmR D205A D205A (Pseudomonas aeruginosa PAO1) (UniProt Q9HWS7)
T6 sequence: T1 sequence with A185R, D205A

[7] = molecular target: T7, BfmR R212A R212A (Pseudomonas aeruginosa PAO1) (UniProt Q9HWS7)
T7 sequence: T1 sequence with A185R, R212A

[8] = molecular target: T8, BfmR S209A S209A (Pseudomonas aeruginosa PAO1) (UniProt Q9HWS7)
T8 sequence: T1 sequence with A185R, S209A

Question: “CATCGGATTCCTGCGAATACTACTGATAACGATAATCTCTATCATTTACTCCATTTTTACATTTACATACACTTGCCCCGCCGCGAATTCCTACGCCGGTTTCCCACATAAACAAGAAACGC (double strand) [PfpvB]” was tested. Which binding [1] did it give?
Answer: Its binding is “binds more weakly”.

Question: And the binding [2]?
Answer: Its binding is “binds more weakly”.

Question: And the binding [3]?
Answer: The binding was “binds more weakly”.

Question: What about the binding [4] of the same sequence?
Answer: Its binding is “binds”.

Question: What about the binding [5] of the same sequence?
Answer: Its binding is “binds more weakly”.

Question: What about the binding [6] of the same sequence?
Answer: The binding was “binds more weakly”.

Question: What about the binding [7] of the same sequence?
Answer: The binding was “binds more weakly”.

Question: And the binding [8]?
Answer: Its binding is “binds more weakly”.
